Calls of active or inactive are those of the source. The calls are words filed in the database; no cut-off is given here.
Key:
[1] = target: Kallikrein-1 (Homo sapiens) (UniProt P06870); conditions: 2 to 10 uM
[2] = system: O=C1CC(c2ccc(O)c(O)c2)Oc2c1c(O)cc(O)c2[C@@H]1C(=O)c2c(O)cc(O)cc2O[C@H]1c1ccc(O)cc1; conditions: Homo sapiens; 4 uM
Description: Mixed-type inhibition of human tissue kallikrein-1 expressed in baculovirus infected insect cells using Abz-KLRSSQ-EDDnp as substrate assessed as enzyme Vmax at 4 uM by Lineweaver-Burk plot analysis

[3] = system: O=C1CC(c2ccc(O)c(O)c2)Oc2c1c(O)cc(O)c2[C@@H]1C(=O)c2c(O)cc(O)cc2O[C@H]1c1ccc(O)cc1; conditions: Homo sapiens; 10 uM
Description: Mixed-type inhibition of human tissue kallikrein-1 expressed in baculovirus infected insect cells using Abz-KLRSSQ-EDDnp as substrate assessed as substrate Km at 10 uM by Lineweaver-Burk plot analysis

[4] = system: O=C1CC(c2ccc(O)c(O)c2)Oc2c1c(O)cc(O)c2[C@@H]1C(=O)c2c(O)cc(O)cc2O[C@H]1c1ccc(O)cc1; conditions: Homo sapiens; 2 uM
Description: Mixed-type inhibition of human tissue kallikrein-1 expressed in baculovirus infected insect cells using Abz-KLRSSQ-EDDnp as substrate assessed as enzyme Vmax at 2 uM by Lineweaver-Burk plot analysis

[5] = system: O=C1CC(c2ccc(O)c(O)c2)Oc2c1c(O)cc(O)c2[C@@H]1C(=O)c2c(O)cc(O)cc2O[C@H]1c1ccc(O)cc1; conditions: Homo sapiens; 8 uM
Description: Mixed-type inhibition of human tissue kallikrein-1 expressed in baculovirus infected insect cells using Abz-KLRSSQ-EDDnp as substrate assessed as enzyme Vmax at 8 uM by Lineweaver-Burk plot analysis

[6] = system: O=C1CC(c2ccc(O)c(O)c2)Oc2c1c(O)cc(O)c2[C@@H]1C(=O)c2c(O)cc(O)cc2O[C@H]1c1ccc(O)cc1; conditions: Homo sapiens; 8 uM; remark: listed apart in the source
Description: Mixed-type inhibition of human tissue kallikrein-1 expressed in baculovirus infected insect cells using Abz-KLRSSQ-EDDnp as substrate assessed as substrate Km at 8 uM by Lineweaver-Burk plot analysis

[7] = system: O=C1CC(c2ccc(O)c(O)c2)Oc2c1c(O)cc(O)c2[C@@H]1C(=O)c2c(O)cc(O)cc2O[C@H]1c1ccc(O)cc1; conditions: Homo sapiens; 4 uM; remark: listed apart in the source
Description: Mixed-type inhibition of human tissue kallikrein-1 expressed in baculovirus infected insect cells using Abz-KLRSSQ-EDDnp as substrate assessed as substrate Km at 4 uM by Lineweaver-Burk plot analysis

[8] = system: O=C1CC(c2ccc(O)c(O)c2)Oc2c1c(O)cc(O)c2[C@@H]1C(=O)c2c(O)cc(O)cc2O[C@H]1c1ccc(O)cc1; conditions: Homo sapiens; 2 uM; remark: listed apart in the source
Description: Mixed-type inhibition of human tissue kallikrein-1 expressed in baculovirus infected insect cells using Abz-KLRSSQ-EDDnp as substrate assessed as substrate Km at 2 uM by Lineweaver-Burk plot analysis

[9] = system: O=C1CC(c2ccc(O)c(O)c2)Oc2c1c(O)cc(O)c2[C@@H]1C(=O)c2c(O)cc(O)cc2O[C@H]1c1ccc(O)cc1; conditions: Homo sapiens; 10 uM; remark: listed apart in the source
Description: Mixed-type inhibition of human tissue kallikrein-1 expressed in baculovirus infected insect cells using Abz-KLRSSQ-EDDnp as substrate assessed as enzyme Vmax at 10 uM by Lineweaver-Burk plot analysis

Row | inhibition [1] | Molecule | Vmax [2] | Km [3] | Vmax [4] | Vmax [5] | Km [6] | Km [7] | Km [8] | Vmax [9]
1 | Active | O=C1CC(c2ccc(O)c(O)c2)Oc2c1c(O)cc(O)c2[C@@H]1C(=O)c2c(O)cc(O)cc2O[C@H]1c1ccc(O)cc1 (some centres undefined) |  |  |  |  |  |  |  | 
2 |  | Kallikrein-1 (Homo sapiens), P06870 | 285 µM/s | 1.12 µM | 387 µM/s | 201 µM/s | 0.93 µM | 0.85 µM | 0.8 µM | 160 µM/s

— ChEMBL document CHEMBL3769311, “The natural flavone fukugetin as a mixed-type inhibitor for human tissue kallikreins” (Bioorg Med Chem Lett, 2016)
